T1: ETS1, full-length human, 6x His-tagged (human, UniProt P14921 1-441)
T1 construct: human ETS1, full-length cDNA in pET28a
T1 sequence (looked up): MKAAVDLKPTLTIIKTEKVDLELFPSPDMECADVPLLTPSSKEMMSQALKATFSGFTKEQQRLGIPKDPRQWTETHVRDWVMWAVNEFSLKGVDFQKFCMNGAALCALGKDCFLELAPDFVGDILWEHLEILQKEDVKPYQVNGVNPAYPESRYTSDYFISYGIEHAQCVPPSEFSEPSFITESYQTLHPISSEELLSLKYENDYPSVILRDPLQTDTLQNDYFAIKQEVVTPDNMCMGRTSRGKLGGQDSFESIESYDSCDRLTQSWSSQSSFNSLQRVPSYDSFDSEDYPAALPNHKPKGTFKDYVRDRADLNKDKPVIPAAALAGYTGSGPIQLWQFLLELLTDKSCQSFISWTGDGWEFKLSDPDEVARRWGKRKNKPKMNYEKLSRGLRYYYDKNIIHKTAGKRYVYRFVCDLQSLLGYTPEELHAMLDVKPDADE


Assays:
[1] = molecular target: ERK2 (pERK2, activated by co-expression with constitutively active MEK) (UniProt P63086); test: MST; 200 nM fluorescently labeled (RED-NHS) ERK2 incubated 30 minutes at room temperature in the dark with different concentrations of purified ETS1 or ERG; standard glass capillaries; NanoTemper Monolith NT.115, LED 80%, IR laser 80%
[2] = molecular target: T1, ETS1, full-length human, 6x His-tagged; test: as above; settings: both partners purified

Molecule | Kd [1] [nM] | Kd [2] [nM]
ERG (isoform 1), full-length human, 6x His-tagged (natural protein) | 230 | 
ERK2 (pERK2, activated by co-expression with constitutively active MEK) (enzyme, UniProt P63086 1-358, looked up, phosphorylated by co-expressed constitutively active MEK (pERK2); fluorescently labeled with amine reactive RED-NHS dye (Monolith Protein Labeling Kit RED-NHS), also called ERK2 kinase; source: co-expressed with constitutively active MEK, purified from bacteria as described [52]) MAAAAAAGPEMVRGQVFDVGPRYTNLSYIGEGAYGMVCSAYDNLNKVRVAIKKISPFEHQTYCQRTLREIKILLRFRHENIIGINDIIRAPTIEQMKDVYIVQDLMETDLYKLLKTQHLSNDHICYFLYQILRGLKYIHSANVLHRDLKPSNLLLNTTCDLKICDFGLARVADPDHDHTGFLTEYVATRWYRAPEIMLNSKGYTKSIDIWSVGCILAEMLSNRPIFPGKHYLDQLNHILGILGSPSQEDLNCIINLKARNYLLSLPHKNKVPWNRLFPNADSKALDLLDKMLTFNPHKRIEVEQALAHPYLEQYYDPSDEPIAEAPFKFDMELDDLPKEKLKELIFEETARFQPGYRS |  | 1790

Reference: article PMC4338625, “Comparison of MAPK specificity across the ETS transcription factor family identifies a high-affinity ERK interaction required for ERG function in prostate cells” (Cell Communication and Signaling : CCS, 2015)
